Reference: patent publication US20250042994A1 (HAINAN SIMCERE ZAIMING PHARMACEUTICAL, published 2025)
Blank lines part the entries; values can stand above or below the binder they belong to.

How the values were obtained:
[1] = target: T1, human CD19 exon1-3-His tag protein (human, UniProt P15391 20-186, limits assumed); assay: ELISA on coated human CD19 exon 1-3-His
T1 construct: membrane-distal part of the extracellular region, made in HEK293E cells; not shown: His tag
T1 sequence (looked up): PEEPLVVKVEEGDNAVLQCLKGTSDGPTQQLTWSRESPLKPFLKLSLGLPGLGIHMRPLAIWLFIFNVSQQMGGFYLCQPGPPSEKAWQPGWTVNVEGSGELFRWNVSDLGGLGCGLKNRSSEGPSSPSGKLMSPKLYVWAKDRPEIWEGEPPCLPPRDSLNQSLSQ

Human CD19-his protein [2] = target: T2, Human CD19-his protein (human, UniProt P15391 20-291); assay: SPR Biacore, Ab captured on Protein A, CD19-His analyte
T2 construct: bought protein; also called recombinant human CD19-His; CD19 full-length protein; not shown: His tag
T2 sequence (looked up): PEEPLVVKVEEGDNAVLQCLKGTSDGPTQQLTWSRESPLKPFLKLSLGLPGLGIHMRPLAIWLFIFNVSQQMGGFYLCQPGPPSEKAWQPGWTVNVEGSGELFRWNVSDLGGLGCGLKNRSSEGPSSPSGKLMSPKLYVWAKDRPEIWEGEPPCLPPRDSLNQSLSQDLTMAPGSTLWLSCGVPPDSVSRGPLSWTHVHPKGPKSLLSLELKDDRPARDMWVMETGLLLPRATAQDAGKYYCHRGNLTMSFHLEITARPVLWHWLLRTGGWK
In short: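 Antibodies were captured on a Protein A chip at 25 °C in HBS-EP+. Human CD19-His was injected for 240 s at 30 μl/min at 5 concentrations from 200 nM (1:1 dilutions), with dissociation up to 600 s. Data were double-referenced and fitted to a Langmuir 1:1 model for apparent KD.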

murine CD19 protein = target: T3, murine CD19 protein (murine, UniProt P25918 17-287, limits assumed); assay: ELISA, coated murine CD19
T3 construct: bought protein; also called commercial murine CD19
T3 sequence (looked up): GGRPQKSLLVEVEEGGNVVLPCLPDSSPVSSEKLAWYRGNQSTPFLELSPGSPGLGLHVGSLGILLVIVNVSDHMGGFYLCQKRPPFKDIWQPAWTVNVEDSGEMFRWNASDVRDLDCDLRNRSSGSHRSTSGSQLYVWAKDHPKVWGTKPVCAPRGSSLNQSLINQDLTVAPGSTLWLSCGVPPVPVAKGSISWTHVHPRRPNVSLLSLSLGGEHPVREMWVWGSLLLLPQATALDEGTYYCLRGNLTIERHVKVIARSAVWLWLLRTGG
Protocol: (§1) Human CD19-his protein (purchased from ACROBiosystems, catalog number: CD9-H52H2) was diluted with PBS to a final concentration of 4 μg/mL, and then added to a 96-well ELISA plate at 100 μl/well. The plate was sealed with a plastic film and incubated overnight at 4° C., the plate was washed 2 times with PBS the next day, and then a blocking solution [PBS+2% (w/w) BSA] was added for blocking at room temperature for 2 h. The blocking solution was poured off, and 100 nM gradiently diluted CD19 chimeric antibody or control antibody was added at 50 μl/well. After incubation at 37° C. for 2 h, the plate was washed 3 times with PBS. […] TMB substrate was added at 50 μl/well, and incubated at room temperature for 10 min, and then a stop solution (1.0 N HCl) was added at 50 μl/well. The OD450 nm values were read by an ELISA microplate reader (Multimode Plate Reader, EnSight, purchased from Perkin Elmer).
(§2) In order to detect the species cross-binding activity of the chimeric antibodies, an ELISA plate was coated with commercial murine CD19 (ACROBiosystems, catalog number: 50510-M08H) and monkey CD19 (ACROBiosystems, catalog number: 90051-C08H), respectively, and the ELISA detection was performed according to the method in example 5.1.

Human CD19-his protein [3] = target: T4, Human CD19-his protein (human, UniProt P15391 20-291); assay: ELISA, antibody at 10 nM
T4 construct: bought protein; also called human CD19 protein; recombinant human CD19-His; not shown: His tag
T4 sequence (looked up): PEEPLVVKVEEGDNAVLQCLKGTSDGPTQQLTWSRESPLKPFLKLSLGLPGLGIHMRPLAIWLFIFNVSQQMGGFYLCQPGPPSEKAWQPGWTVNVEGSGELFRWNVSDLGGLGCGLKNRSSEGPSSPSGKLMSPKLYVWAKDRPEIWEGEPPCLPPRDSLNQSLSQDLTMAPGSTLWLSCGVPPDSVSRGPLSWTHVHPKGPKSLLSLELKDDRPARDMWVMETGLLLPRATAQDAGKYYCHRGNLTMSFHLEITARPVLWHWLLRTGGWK
Protocol: as §1

Human CD19-his protein [4] = target: T4, Human CD19-his protein; assay: ELISA, antibody at 100 nM
Protocol: as §1

Human CD19-his protein [5] = target: T4, Human CD19-his protein; assay: ELISA, antibody at 0.01 nM
Protocol: as §1

Human CD19-his protein [6] = target: T4, Human CD19-his protein; assay: ELISA, antibody at 0.10 nM
Protocol: as §1

Human CD19-his protein [7] = target: T4, Human CD19-his protein; assay: ELISA, antibody at 1.00 nM
Protocol: as §1

Human CD19-his protein [8] = target: T4, Human CD19-his protein; assay: ELISA, antibody at 0.001 nM
Protocol: as §1

Human CD19-his protein [9] = target: T4, Human CD19-his protein; assay: ELISA, antibody at 0.0001 nM
Protocol: as §1

Human CD19-his protein [10] = target: T4, Human CD19-his protein; assay: ELISA on coated human CD19-His
Protocol: as §1

human CD19 on Raji cells = target: T5, human CD19 on Raji cells (human, UniProt P15391 20-556); assay: FACS on Raji cells
T5 construct: whole, on cells
T5 sequence (looked up): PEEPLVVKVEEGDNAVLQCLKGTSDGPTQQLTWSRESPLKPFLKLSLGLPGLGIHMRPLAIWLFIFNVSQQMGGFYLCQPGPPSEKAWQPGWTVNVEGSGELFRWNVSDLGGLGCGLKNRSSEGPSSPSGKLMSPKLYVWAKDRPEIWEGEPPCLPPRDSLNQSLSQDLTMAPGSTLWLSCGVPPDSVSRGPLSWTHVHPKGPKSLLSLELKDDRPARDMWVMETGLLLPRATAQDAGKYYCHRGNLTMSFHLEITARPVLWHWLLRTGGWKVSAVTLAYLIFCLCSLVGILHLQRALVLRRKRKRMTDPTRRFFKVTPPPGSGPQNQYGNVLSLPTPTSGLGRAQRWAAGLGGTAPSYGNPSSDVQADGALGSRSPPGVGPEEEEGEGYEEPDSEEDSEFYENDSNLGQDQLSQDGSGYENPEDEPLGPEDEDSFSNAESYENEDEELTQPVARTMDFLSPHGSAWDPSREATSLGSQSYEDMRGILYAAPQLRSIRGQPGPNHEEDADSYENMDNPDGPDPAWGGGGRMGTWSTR

[11] = target: T6, human CD19 on CHO-K1-human CD19 cells (human, UniProt P15391 20-556); assay: FACS on CHO-K1-human CD19 cells
T6 construct: whole, on cells; also called CHO-K1-human CD19-2C8
T6 sequence (looked up): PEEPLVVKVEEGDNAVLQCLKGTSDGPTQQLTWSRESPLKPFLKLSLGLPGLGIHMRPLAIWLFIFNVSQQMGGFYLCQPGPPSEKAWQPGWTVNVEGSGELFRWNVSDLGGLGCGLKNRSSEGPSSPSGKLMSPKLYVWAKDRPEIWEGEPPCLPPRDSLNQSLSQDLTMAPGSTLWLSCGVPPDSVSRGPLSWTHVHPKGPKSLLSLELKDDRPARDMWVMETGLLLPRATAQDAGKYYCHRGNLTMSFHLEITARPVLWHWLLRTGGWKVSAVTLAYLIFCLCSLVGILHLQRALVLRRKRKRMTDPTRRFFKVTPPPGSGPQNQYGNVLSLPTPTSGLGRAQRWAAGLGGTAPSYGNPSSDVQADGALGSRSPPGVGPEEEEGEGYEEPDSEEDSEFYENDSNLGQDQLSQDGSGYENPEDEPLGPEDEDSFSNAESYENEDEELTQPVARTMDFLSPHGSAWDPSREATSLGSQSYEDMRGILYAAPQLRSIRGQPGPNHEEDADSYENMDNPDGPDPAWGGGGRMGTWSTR

monkey CD19 protein = target: T7, monkey CD19 protein (monkey); assay: ELISA, coated monkey CD19 protein
T7 construct: also called monkey CD19-His protein
Protocol: as §1, §2

[12] = target: T8, monkey CD19 on HEK293T-monkey CD19 cells (monkey); assay: FACS on HEK293T-monkey CD19 cells
T8 construct: whole, on cells
In short: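 Cells blocked in PBS + 2% (w/w) BSA at 2×10⁶ cells/ml, then incubated with test antibody on ice for 2 h. After washes, binding read by flow cytometry as mean fluorescence intensity (MFI). EC50 from fitted MFI curves. Parental HEK293T cells run by the same method.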

binding result [1]: no binding (tested: 100 nM)
Kd (Human CD19-his protein [2]): 1.18 nM
koff (Human CD19-his protein [2]): 0.000225 s⁻¹
kon (Human CD19-his protein [2]): 192000 M⁻¹ s⁻¹
B1: F5.7.1 (antibody, human IgG1, V domains shown)
VH: QVTLKESGPGILQPSQTLSLTCSFSGFSLTTFGMGVGWIRQPSGKGLEWLTHIWWDDDKYYNPALKSRLTISKDTSKNQVFLRIANVDTADTATYYCARVITTGVPYFDYWGQGTTLTVSS
VL: ENVLTQSPAIMSASPGEKVTMTCRASSSVSSSYLYWYQQKSGASPKLWISSTSNLASGVPARFSGSGSGTSYSLTINSVEAEDAATYYCQQYSGYPWTFGGGTKLEIK
notes: human-murine chimeric antibody, human IgG1 constant

binding result [1]: no binding (tested: 100 nM)
Kd (Human CD19-his protein [2]): 5.98 nM
koff (Human CD19-his protein [2]): 0.00108 s⁻¹
kon (Human CD19-his protein [2]): 181000 M⁻¹ s⁻¹
B2: F5.8.6 (antibody, human IgG1, V domains shown)
VH: QVQLHQPGAELVMPGASVTLSCKASGYTFTSYWMHWVKQRPGQGLEWIGEIDPSDSYTTYDQKFKGKATLTVDKFSSTAYMQFSSLTSEDSAVYYCARLTGNHLDYWGQGTTLTVSS
VL: DIVMTQSHKFMSSSVGDRVSITCKASQDVSPAVAWYQQKPGQSPKLLIYSTSYRNTGVPDRFTGSGSGTDFTFTISSVQAEDLAVYYCQQHYSIPLTFGAGTKLELK
notes: as for B1

binding result (murine CD19 protein): no binding
OD450 (Human CD19-his protein [3]): 2.92
OD450 (Human CD19-his protein [4]): 2.98
OD450 (Human CD19-his protein [5]): 0.24
OD450 (Human CD19-his protein [6]): 1.18
OD450 (Human CD19-his protein [7]): 2.62
OD450 (Human CD19-his protein [8]): 0.07
OD450 (Human CD19-his protein [9]): 0.05
EC50 (read off the curve) (Human CD19-his protein [10]): ~0.2 nM
B3: F3.109.1 (antibody, human IgG1, V domains shown)
VH: EVQLQQSGAELVRPGSSVKMSCKTSGYTFTSYGINWVKQRPGQGLEWIGYIYIGNDYTEFNEKFKGKATLTSDTSSSTAYMQLSSLTSEDSAIYFCARFYSNSDPMDYWGHGTSVTVSS
VL: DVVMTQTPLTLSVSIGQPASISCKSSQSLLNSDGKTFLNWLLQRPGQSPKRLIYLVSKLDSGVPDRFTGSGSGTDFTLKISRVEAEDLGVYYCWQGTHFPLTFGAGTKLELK
notes: human-murine chimeric antibody, human IgG1

EC50 (human CD19 on Raji cells): 0.28 nM
Maximum mean fluorescence intensity (human CD19 on Raji cells): 31800
EC50 [11]: 0.26 nM
Maximum mean fluorescence intensity [11]: 4700
OD450 at 0.0001 nM (monkey CD19 protein): 0.06 OD450
OD450 at 0.001 nM (monkey CD19 protein): 0.06 OD450
OD450 at 0.01 nM (monkey CD19 protein): 0.07 OD450
OD450 at 0.10 nM (monkey CD19 protein): 0.13 OD450
OD450 at 1.00 nM (monkey CD19 protein): 0.78 OD450
OD450 at 10 nM (monkey CD19 protein): 1.93 OD450
OD450 at 100 nM (monkey CD19 protein): 2.47 OD450
Maximum mean fluorescence intensity [12]: 177
B4: F3.148.10 (antibody, human IgG1, V domains shown)
VH: EVQLQQSGAELVRPGSSVTMSCKTSGYTFTNYGINWVKQRPGQGLEWIGYIFIGNDYTEYNEKFKGKATLTSDTSSSTAYMQLSSLTSEDSAIYFCTRFYSNYYGMDPWGQGTSVTVSS
VL: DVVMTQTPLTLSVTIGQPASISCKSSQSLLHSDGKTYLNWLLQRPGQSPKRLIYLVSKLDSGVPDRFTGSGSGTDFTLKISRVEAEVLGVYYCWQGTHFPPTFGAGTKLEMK
notes: as for B3

binding result [1]: no binding (tested: 100 nM)
Kd (Human CD19-his protein [2]): 15.7 nM
koff (Human CD19-his protein [2]): 0.000402 s⁻¹
kon (Human CD19-his protein [2]): 25700 M⁻¹ s⁻¹
B5: F5.2.9 (antibody, human IgG1, V domains shown)
VH: QVTLKESGPGILQPSQTLSLTCSFSGFSLSTFGLGVGWVRQPSGKGLEWLAHIWWDDDKYYNPALKSRVTVSKETSKNQVFFKIANVDTADSATYYCARLSRGLRRDVVYAMDHWGQGTSVTVSS
VL: DIQMTQTTSSLSASLGDRVTISCRASQDISNYLNWYQQKPDGSVKLLISYVSRLQSGVPSRFRGSGSGTDYSLTISNLDQEDIATYFCQQGIAFPYTFGGGTKLDIK
notes: as for B1
